In article PMC7482062:

Key:
[1] = target: P113 (Plasmodium falciparum) (UniProt Q8ILP3); details: cited from earlier work
[2] = target: P113 N-terminal fragment D106K E107K mutant, biotinylated bait (Plasmodium falciparum (3D7 strain)) (UniProt Q8ILP3); assay: SPR; […]; Biacore 8K, 37°C, HBS-EP

Substance | Kd [1] [nM] | fold reduction in dissociation half-life against wild type [2] [fold]
RH5 (from UniProt Q8IFM5) | 300 | –
RH5, purified monomeric protein (from UniProt Q8IFM5 25-526) (ligand) | – | 2
